Laboratory results taken from paper PMC12187842, “A novel molecule targeting neutrophil-mediated B-1a cell trogocytosis attenuates sepsis-induced acute lung injury” (Frontiers in Immunology, 2025).

B1: recombinant mouse CD47 (receptor, UniProt Q61735 19-140, looked up)
chain: QLLFSNVNSIEFTSCNETVVIPCIVRNVEAQSTEEMFVKWKLNKSYIFIYDGNKNSTTTDQNFTSAKISVSDLINGIASLKMDKRDAMVGNYTCEVTELSREGKTVIELKNRTVSWFSPNEK
notes: CD47, mouse, recombinant; UniProt Q61735 is printed for the in silico model; check the vendor's data sheet; also called rmCD47; source: bought: Abcam (Cat. No. AB231160)
B2: recombinant mouse (rm)Siglec-G (receptor, UniProt Q80ZE3 18-543, looked up)
chain: QMESYFLQVQRIVKAQEGLCIFVPCSFSSPEGKWLNRSPLYGYWFKGIRKPSLSFPVATNNKDKVLEWEARGRFQLLGDISKKNCSLLIKDVQWGDSTNYFFRMERGFERFSFKEEFRLQVEALTQKPDIFIPEVLEPGEPVTVVCLFSWTFNQCPAPSFSWMGDAVSFQESRPHTSNYSVLSFIPGLQHHDTELTCQLDFSRMSTQRTVRLRVAYAPRSLAISIFHDNVSVPDLHENPSHLEVQQGQSLRLLCTADSQPPATLSWVLEDQVLSWSSPVGSRTLALELPWVKAGDSGHYTCQAENRLGSQQHTLDLSVLYPPQDLRVTVSQANRTVLEILRNAISLPVLEGQSLCLVCVTYSNPPANVSWAWVTQTLIPIQSSEPGVLELPLVQREHEGEFTCAAQNPLGAQRISLSLSVHYPPQMSSPSCSWEAKGLHCNCSSRAWPAPSLRWRLGEGLLEGNSSNASFTVTFSSLGPWVNSSLSLLQELGPSLWLSCESWNTHGAQTTSVLLLPDKDSATAFSK
notes: Siglec-G, mouse, recombinant; UniProt Q80ZE3 is printed for the in silico model; check the vendor's data sheet; source: bought: R&D Systems (Cat. No. 10103-SL-050)

Legend:
[1] = biological target: B2; assay: SPR; OpenSPR (Nicoya), HS-Carboxyl sensor; rmCD47 immobilised by EDC/NHS coupling; rmSiglec-G as analyte at 100, 250 and 500 nM; PBS 0.05% P20, pH 7.4; 40 uL/min; 20°C; global fit for 1:1 binding; details: both partners purified
[2] = biological target: B1; assay: SPR; same setting as a1 (rmCD47 immobilised on HS-carboxyl sensor); peptide C11 at 1 µM preincubated for 30 minutes with rmSiglec-G at 100, 250 and 500 nM, then injected; details: both partners purified
[3] = biological target: rmCD47; assay: Surface plasmon resonance: rmSiglec-G binding to immobilized rmCD47; set-up: species or system mouse; details: SPR (OpenSPR), rmCD47 immobilized on HS-carboxyl sensor, rmSiglec-G analyte 100, 250 and 500 nM, PBS 0.05% P20, pH 7.4, 20°C, 1:1 global fit; no C11; read-out: dissociation constant (KD) Siglec-G/CD47
Experimental: To examine the direct interaction between recombinant mouse (rm)Siglec-G (Cat. No. 10103-SL-050, R&D Systems, Minneapolis, MN) and rmCD47 (Cat. No. AB231160, Abcam, Cambridge, UK), surface plasmon resonance (SPR), using OpenSPR (Nicoya, Ontario, Canada), was performed. HS-Carboxyl sensor was used; rmCD47 was immobilized on the sensor surface; rmSiglec-G was in the reaction buffer, working as an analyte. Binding reactions were performed in PBS 0.05% P20, pH7.4. The carboxyl sensor was first cleaned by injecting 150 µL of 10 mM HCl, followed by injection of 150 µL of the mixture of 1 aliquot of N-ethyl-N′-[3-[…]]-carbodiimide (EDC) and 1 aliquot of N-hydroxysuccinimide (NHS) to activate the sensor surface. […] To evaluate the binding, the analyte ranging from 100 nM, 250 nM and 500 nM were injected into flow cell-1 and flow cell-2, and the real-time interaction data were analyzed by TraceDrawer (Nicoya). […] For peptide C11 efficacy on Siglec-G binding to CD47, with the same setting as Siglec-G binding with CD47 on HS-carboxyl sensor, peptide C11 at 1 µM preincubated with concentrations of rmSiglec-G 100 nM, 250 nM & 500 nM for 30 minutes and then injected into flow cell-1 and flow cell-2, and real-time interaction were analyzed ab TraceDrawer (Nicoya). […]

Kd [1] [µM]	KD in the presence of 1 µM C11 [2] [µM]	Kd [3] [µM]	Molecule
0.0108			B1
	0.155	0.0108	B2
